Biological target: Rhodobacter sphaeroides TSPO A139T mutant (Rhodobacter sphaeroides) (UniProt Q9RFC8)
Assay: native MS

How did the stoichiometry N turn out when “Rhodobacter sphaeroides TSPO A139T mutant (from UniProt Q9RFC8 1-157) (natural protein)” was run?
Its stoichiometry N is 2.

Source: paper PMC7332344
